Source: US20250122301A1 (IBIO, published 2025)
Changes are numbered by the printed parent chain.

B1: D34 Fab (Fab, V domains shown)
VH: QVQLQQSGAELVRPGVSVKISCKGSGYTFTDYAMHWVKQSHAKSLEWIGVISTYSGDVSYNQKFKGKATMTVDKSSSTAYMELARLTSEDSAIYYCARGVTFDSWGQGTTVTVSS
VL: DIQMTQSPASLSASVGETVTITCRASENSYSYLEWYQQKQGKSPQLLVYNAKTLAEGVPSRFSGSGSGTQFSLKINSLQPEDFGTYYCQHHYGTPYTFGGGTKLEIK
notes: Fab; also called Fab clone D34
B2: D36 Fab (Fab, V domains shown)
VH: B1 VH with S7P, V18L, K38R, V58A, S59L, M81L, S104Y, V111L
VL: B1 VL with I2V, Q3V, I106M
notes: Fab; also called Fab clone D36
B3: D5 Fab (Fab, V domains shown)
VH: HVQLQQSGAELVRPGTSVKISCKASGYTFTNYWLGWVKQRPGHGLEWIGDIYPGGGYTNYNEKFKGKATLTADTSSSTAYMQLSSLTSEDSAVYFCARVTPASWGQGTSLTVSS
VL: DIVMTQSQKFMSTSVGDRVSVTCKASQNVGTNVAWYQQKPGQSPKALIYSASYRYSGVPDRFTGSGSGTDFTLTISNVQSEDLAEYFCQQYNSYPYTFGGGTKLEMK
notes: Fab from mouse immune phage library, expressed in E. coli; also called Fab clone D5
B4: 7G7B6 (antibody, V domains shown)
VH: EVQLVESGGDLVQPRGSLKLSCAASGFTFSSYGMSWVRQTPDKRLELVATINGYGDTTYYPDSVKGRFTISRDNAKNTLYLQMSSLKSEDTAMYFCARDRDYGNSYYYALDYWGQGTSVTVSS
VL: QIVLSQSPAILSASPGERVTMTCRASSSVSFMHWLQQKPGSSPKPWIYATSNLASGVSARFSGSGSGTSYSLTITRVEAEDAATYYCQQWSSNPPAFGGGTKLEIK
B5: AH05247 (human IgG1 reformatted) (antibody, V domains shown)
VH: QVQLQQSGADLMKPGASVKMSCRASGYTFSNYWIEWIKQRPGHGLEWIGEILPGSGFTNYNENFKGKATFTADTSSNTTYMLLSSLSSEDSAVYYCARGGTSVVHFDSWGQGTTLTVSS
VL: B3 VL with Y96L, M106I
B6: AH04750 (human IgG1 reformatted) (antibody, V domains shown)
VH: QVQLQQPGAEMAKPGASVKMSCKASGYTSTAYWIHWVKQRPGQGLEWIGYITPSTGYTEYNQKFEDKATLTADKSSNTAYMQLNSLTSEDSAVYYCARGGYFDYWGQGTTVTVSS
VL: DIQMTQTTSSLSASLGDRVTISCRASQDISNYLNWYQQKPDGTVKLLIYYTSRLHSGVPSRFSGSGSGTDYSLTISNLEQEDIATYFCQQGNTLPPTFGGGTKLEMK
B7: AH05268 (human IgG1 reformatted) (antibody, V domains shown)
VH: B1 VH with V18L, K38R, V58A, S59L, M81L, E89D, S104Y, V111L
VL: DVQMTQSPSSMYASLGERVTFTCKASQDINRYLSWFQQKPGKSPKTLIYRANRLVDGVPSRFSGSGSGQNYSLTISSLEYEDMGIYYCLQYDEFPYTFGGGTKLEIK
B8: AH05257 (human IgG1 reformatted) (antibody, V domains shown)
VH: B1 VH with V18L, K38R, V58A, S59I, M81L, S104Y, V111L, S115A
VL: B6 VL with Q3V, T7S, N34S, V44I, P59S, I83F, N92H, M106I
B9: AH04509 (human IgG1 reformatted) (antibody, V domains shown)
VH: QIQLQQSGAELVRPGTSVKMSCKAAGYTFTNYWIGWVKQRPGHGLEWIGDFYPGGDYINYNEKFKGKATLTADTSSSTAYMQLSSLTSEDSAIYYCTSRNFAYWGQGTPVTVSS
VL: B3 VL with I2T, V3T, M4V, K9R, A46P, S76N, S93N, Y94S, Y96L, M106I
notes: also called AH4509
B10: AH05251 (human IgG1 reformatted) (antibody, V domains shown)
VH: EVRLQQSGAELVRSGASVKLSCTASGFNIKDYYIHWVKQRPEQGLEWIGWIDPDNGETEYAPKFQGKATMTADTSSNTAHLQLSSLTSEDTAVYYCTVFWYGNNYAGFAYWGQGTLVTVSS
VL: DVVMTQTPLSLPVNLGDQASISCRSSQSIVHSNGNTYLEWYLQKPGQSPKLLIYKVSNRFSGVPDRFSGSGSGTDFTLKISRVEAEDLGIYYCFQGSHVPPTFGGGTKLEIK
B11: BP003-T2P1D7 (human IgG1 reformatted) (antibody, V domains shown)
VH: B10 VH with E1Q, V2A, R3Y, S121A
VL: B10 VL with M4L, N14S, R82K, I90V
B12: BP003-T2P1E3 (human IgG1 reformatted) (antibody, V domains shown)
VH: B9 VH with F51I, Y52H, D56G, I58T
VL: B3 VL with M4L, M106I
B13: AH05258 (human IgG1 reformatted) (antibody, V domains shown)
VH: B1 VH with V2I, V111L
VL: DIVMTQSHKFMSTSVGDRVSITCKASQDVSTAVAWYQQKPGQSPKLLIYSASYRYTGVPDRFTGSGSGTDFTFTISSVQAEDLAVYYCQQHYSTPFTFGSGTKLEIK
B14: AH05271 (human IgG1 reformatted) (antibody, V domains shown)
VH: B1 VH with I93T, V111L
VL: DIQMTQTPASLAASVGETVTITCRASENIYFSLAWYQQKQGKSPQLLIYNANTLEDGVPSRFSGSGSGTQFSMKINNMQPEDTATYFCKQAYDVPWTFGGGTKLEIK
B15: AH05280 (human IgG1 reformatted) (antibody, V domains shown)
VH: B5 VH with Q1E, Q3R, M20I, R23K, A24T, I34T, L82Q, S87T, S108Y, T114S
VL: DIVMTQTPKFLLVSAGDRVTITCKASQSVNNDVLWYQQKPGQSPKLLIYYASNRYTGVPDRFTGSGYGTDFTFTISTVQAEDLAVYFCQQAYWSPYTFGGGTKLEIK
B16: AH05286 (human IgG1 reformatted) (antibody, V domains shown)
VH: B5 VH with Q5K, M20I, R23K, F57Y, M81I, L82Q, V103F, S108Y
VL: DIVLTQSPPTLSLSPGERVTLSCKASQDVNTAVAWYQQKPGQAPRLLIYWASTRHTGVPSRFSGSGSGTDFTLTISSLQPEDFATYYCQQHYSSPWTFGGGTKLEIK
B17: AH05249 (human IgG1 reformatted) (antibody, V domains shown)
VH: B5 VH
VL: B15 VL with L34V, A91D, W93R
B18: D34 (human IgG1 reformatted) (antibody, V domains shown)
VH: B1 VH
VL: B1 VL
B19: AH04734 (human IgG1 reformatted) (antibody, V domains shown)
VH: QVQLQQPAAELARPGASVKMSCKASGYTFTTSTMHWVKQRPGQGLEWIGYINPRSGYTEYNQKFKDKTTLTADKSSSTAYMQLSSLTSEDSAVYYCARHYYFDYWGQGTTVTVSS
VL: B6 VL with T7S, S30R, F98S, M106I
B20: D11 (human IgG1 reformatted) (antibody, V domains shown)
VH: B1 VH with V2I, S7P, V18L, K38R, V58A, S59I, M81L, E89D, S104Y
VL: DIQMTQTTSSLSASLGDRVTITCRASQDISNYLEWYQQKQGKSPQLLVYNAKTLAEGVPSRFSGSGSGTQFSLKINSLQPEDFGSYYCQHHYDTPYTFGGGTKLEIK
B21: AH05214 (human IgG1 reformatted) (antibody, V domains shown)
VH: QIQLQQPGAELVKPGASVKLPCKASGYTFTSYWMHWVKQRPGQGLEWIGEINPSNGRTNYNEKFKSKATLTVDKSSSTAYMQLSSLTSEDSAVYYCARQLAAYWGQGTTVTVSS
VL: DILLTQSPALMAASPGEKVTITCSVSSSISSSNLHWYQQKSETSPKPWIYGTSNLASGVPVRFSGSGSGTSYSLTISSMEAEDAATYYCQQWSSYPLTFGGGTKLEIK

What follows are binders tested against T1, full-length CD25 (human CD25, recombinant protein used on biosensors) (human, UniProt P01589 22-213, limits assumed) (assay: Octet BLI, human CD25 on AR2G tip, Fab, pH 7.4).
T1 construct: Printed only as Human CD25 / full-length CD25; also called CD25 antigen; alpha chain of the IL-2 receptor
T1 sequence (looked up): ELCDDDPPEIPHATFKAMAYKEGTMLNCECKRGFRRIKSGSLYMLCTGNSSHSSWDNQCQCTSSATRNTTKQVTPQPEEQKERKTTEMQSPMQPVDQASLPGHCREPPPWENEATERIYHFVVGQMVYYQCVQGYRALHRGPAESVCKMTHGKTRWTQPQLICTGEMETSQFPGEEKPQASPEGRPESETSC
For B1, the koff was 0.00285 s⁻¹.
B2 showed a koff of 0.000898 s⁻¹.
With B3 the koff was 0.00345 s⁻¹.

These binders were tested against T2, CD25 on CD25+ cells (SUDHL-1, HEK IL-2 reporter cells, primary human regulatory T cells) (human, UniProt P01589 22-272) (assay: flow cytometry, dose response on CD25+ SUDHL-1 cells;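 also: antibody binding to cells read as median fluorescence intensity of an AF647 anti-human Fc secondary, DAPI+ dead cells excluded, 20 min on ice, 5-fold dilutions from 10 ug/mL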).
T2 construct: whole, on cells; also called IL-2Ralpha
T2 sequence (looked up): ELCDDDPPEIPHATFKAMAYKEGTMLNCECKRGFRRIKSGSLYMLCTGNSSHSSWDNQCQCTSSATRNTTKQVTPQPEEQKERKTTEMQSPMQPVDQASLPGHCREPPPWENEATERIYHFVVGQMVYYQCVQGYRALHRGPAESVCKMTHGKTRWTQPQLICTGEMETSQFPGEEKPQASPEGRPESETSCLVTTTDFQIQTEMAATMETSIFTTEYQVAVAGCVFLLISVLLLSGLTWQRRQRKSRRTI
Binder B4 has an EC50 of 0.903 µg/mL.
B5 was tested, and the EC50 was 0.0977 µg/mL.
B6 gave an EC50 of 0.107 µg/mL.
B7 was tested, and the EC50 was 0.108 µg/mL.
Binder B8 has an EC50 of 0.113 µg/mL.
B9 was tested, and the EC50 was 0.121 µg/mL.
With B10 the EC50 was 0.132 µg/mL.
B11 gave an EC50 of 0.125 µg/mL.
Binder B12 has an EC50 of 0.125 µg/mL.
With B13 the EC50 was 0.184 µg/mL.
With B14 the EC50 was 0.25 µg/mL.
For B15, the EC50 was 0.387 µg/mL.
For B16, the EC50 was 0.777 µg/mL.
Work on B17 yielded an EC50 of 0.897 µg/mL.
Work on B18 yielded an EC50 of 1.1 µg/mL.
B19 showed an EC50 of 1.91 µg/mL.
For B20, the EC50 was 2.12 µg/mL.
Binder B21 has an EC50 of roughly 51.1 µg/mL.

What follows are binders tested against T2, CD25 on CD25+ cells (SUDHL-1, HEK IL-2 …) (assay: cell-based or functional assay).
For B4, the “pSTAT5 IC50 (1 ug/mL) [ng/ml]” value was 0.963 ng/ml, the “pSTAT5 IC50 (2 ug/mL) [ng/ml]” value was 0.906 ng/ml and the “pSTAT5 IC50 (5 ug/mL) [ng/ml]” value was 1.47 ng/ml.
B1 was tested, and the “pSTAT5 IC50 (1 ug/mL) [ng/ml]” value was 2.56 ng/ml, the “pSTAT5 IC50 (2 ug/mL) [ng/ml]” value was 2.35 ng/ml and the “pSTAT5 IC50 (5 ug/mL) [ng/ml]” value was 2.27 ng/ml.
In the case of B2, the “pSTAT5 IC50 (1 ug/mL) [ng/ml]” value is reported as 2.23 ng/ml, the “pSTAT5 IC50 (2 ug/mL) [ng/ml]” value is reported as 3.45 ng/ml and the “pSTAT5 IC50 (5 ug/mL) [ng/ml]” value is reported as 0.378 ng/ml.
For B3, the “pSTAT5 IC50 (1 ug/mL) [ng/ml]” value was 0.303 ng/ml, the “pSTAT5 IC50 (2 ug/mL) [ng/ml]” value was 0.488 ng/ml and the “pSTAT5 IC50 (5 ug/mL) [ng/ml]” value was 1.65 ng/ml.

Each binder was assayed against T1, full-length CD25 (human CD25, …) (assay: Octet BLI, human CD25 on AR2G tip, Fab, pH 6.5).
For B1, the koff was 0.00296 s⁻¹.
B2 gave a koff of 0.00172 s⁻¹.
B3 gave a koff of 0.00412 s⁻¹.
